Assay: soluble on expression in E. coli; label from the status in PepcDB or PDB records

| Sequence | soluble on expression in E. coli |
| --- | --- |
| GHHHHHHHHHHSSGHISGDAMEDKQERANYEKLQQKFQMLMSKHQAHVRPQFESLEKINKDIVGWIKLSGTSLNYPVLQGKTNHDYLNLDFEREHRRKGSIFMDFRNELKNLNHNTILYGHHVGDNTMFDVLEDYLKQSFYEKHKIIEFDNKYGKYQLQVFSAYKTTTKDNYIRTDFENDQDYQQFLDETKRKSVINSDVNVTVKDRIMTLSTCEDAYSETTKRIVVVAKIIKVS | soluble |
| GIDPFTMAAYTIVKEEESPIAPHRLFKALVLERHQVLVKAQPHVFKSGEIIEGDGGVGTVTKITFVDGHPLTYMLHKFDEIDAANFYCKYTLFEGDVLRDNIEKVVYEVKLEAVGGGSKGKITVTYHPKPGCTVNEEEVKIGEKKAYEFYKQVEEYLAANPEVFA | soluble |
| GIDPFTTARKSTGGKAPRKGGMVVKKRKLATEAGGSDERPKYLPGKHPKNQEKTPHVDYNAPLNPKSELFLDDWHIPKFNRFISFTLDVLIDKYKDIFKDFIKLPSRKFHPQYYYKIQQPMSINEIKSRDYEYEDGPSNFLLDVELLTKNCQAYNEYDSLIVKNSMQVVMLIEFEVLKAKNLKRNYLINSEVKAKLLHYLNKLVDATEKKINQALLGASSPKNLDDKVKLSEPFMELVDKDELPEYYEIVHSPMALSIVKQNLEIGQYSKIYDFIIDMLLVFQNAHIFNDPSALIYKDATTLTNYFNYLIQKEFFPELQDLNERGEINLEFDKFEFENYLAIGGGGPAAAGALAISALDND | soluble |
| GIPMETKGGTVKAASGFNATEDAQVLRKAMKGLGTDEDAIIGVLACRNTAQRQEIRTAYKSTIGRDLLEDLKSELSSNFEQVILGMMTPTVLYDVQELRRAMKGAGTDEGCLIEILASRNPEEIRRINQTYQQQYGRSLEEDICSDTSFMFQRVLVSLTAGGRDEGNYLDDALVKQDAQDLYEAGEKRWGTDEVKFLSILCSRNRNHLLHVFDEYKRISQKDIEQSIKSETSGSFEDALLAIVKCMRNKPAYFAERLYKSMKGLGTDDSTLIRVMVSRAEIDMLDIRANFKRLYGKSLYSFIKGDTSGDYRKVLLILCGGDD | soluble |
| GKDFTYNVDANVSFARNKILYMDEVPKQFSYMNQTGGSTGRQTGVYNYIRLYQYSDFITGADGELTLKPELPQPYQKVYPGDAMYADLNGDHIVDGNDKSVAGYATRPEYVFGMNMGFDWKGFNFTMQWVGSKNVNRMYDIEYRIPYTNAGKRGLLTYFYDGCWTPENQLGATYPRPSEESESWNSEPSTLWLVDASYLRLKSLSFGYTITGKKFLKKLGLSSLGLNFSGYNLLTFSPLKYLDPESDPNRFGDYPLIKVYSFGLNLNF | not soluble |
| GKENDAGDIVEKFDPTEAQSVEVQDERPETTIGRGKPTDEVVLLSEAHRPEEKMAAYEDEHGTYIMNSKDLRAVQHVERLTKMGVHSLKIEGRTKSFYYCARTAQVYRKAIDDAVAGKPFDESLMGTLESLAHRGYTEGFLRRHTHDTYQNYDYGYSVSDAQQFVGEFTGKRRGDMAEVEVKNKFVVGDSLELMTPKGNVVFTLEAMENRKSESIEDAKGNGHFVFIPVPEDMDLEYGLLMRNLNAGQDTRNPTGK | not soluble |
| GKHTVPYTISVDGITALHRTYFVFPENKKVLYQEIDSKVKNELASQRGVTTEKINNAQTATYTLTLNDGNKKVVNLKKNDDAKNSIDPSTIKQIQIVVK | soluble |
| GKITFYEDRGFQGHCYESSSDCPNLQPYFSRCNSIRVDSGCWMLYERPNYQGHQYFLRRGDYPDYQQWMGFNDSIRSCRLIPQHTGTFRMRIYERDDFRGQMSEITDDCPSLQDRFHLTEVHSLNVLEGSWVLYEMPSYRGRQYLLRPGEYRRYLDWGAMNAKVGSLRRVMDFY | soluble |
| GKRSERQQADMEMMKDRFAKLLLGEDMSGGGKGVSSALALSNAITNLAASIFGEQTKLQPMPQDRQARWKKEIDWLLSVTDHIVEFVPSQQTSKDGVCTEIMVTRQRGDLLMNIPALRKLDAMLIDTLDNFRGHNEFWYVSRDSEEGQQARNDRTNDKWWLPPVKVPPGGLSEPSRRMLYFQKDSVTQVQKAAMAINAQVLSEMEIPESYIDSLPKNGRASLGDSIYKSITEEWFDPEQFLAMLDMSTEHKVLDLKNRIEASVVIWKRKLHTKDTKSSWGSAVSLEKRELFEERAETILVLLKQKFPGLPQSSLDISKIQFNKDVGQAVLESYSRILESLAYTVMSRIEDVLYTDTLALKQTLLA | soluble |
| GLAIEGPSEAKMSCKDNKDGSCTVEYIPFTPGDYDVNITFGGRPIPGSPFRVPVKDVVDPGKVKCSGPGLGAGVRARVPQTFTVDCSQAGRAPLQVAVLGPTGVAEPVEVRDNGDGTHTVHYTPATDGPYTVAVKYADQEVPRSPFKIKVLPAHDASKVRASGPGLNASGIPASLPVEFTIDARDAGEGLLTVQILDPEGKPKKANIRDNGDGTYTVSYLPDMSGRYTITIKYGGDEIPYSPFRIHALPTGDASKCLVTVSIGGHGLGACLGPRIQIGQETVITVDAKAAGEGKVTCTVSTPDGAELDVDVVENHDGTFDIYYTAPEPGKYVITIRFGGEHIPNSPFHVLACDPLPHEEEPSEVPQLRQPYAPPRPGARPTHWATEEPVVPVEPMESMLRPFNLVIPFAVQKGELTGEVRMPSGKTARPNITDNKDGTITVRYAPTEKGLHQMGIKYDGNHIPGSPLQFYVDAINSRHVSAYGPGLSHGMVNKPATFTIVTKDAGEGGLSLAVEGPSKAEITCKDNKDGTCTVSYLPTAPGDYSIIVRFDDKHIPGSPFTAKITGDDSMRTSQLNVGTSTDVSLKITESDLSQLTASIRAPSGNEEPCLLKRLPNRHIGISFTPKEVGEHVVSVRKSGKHVTNSPFKILVGPSEIGDASKVRVWGKGLSEGHTFQVAEFIVDTRNAGYGGLGLSIEGPSKVDINCEDMEDGTCKVTYCPTEPGTYIINIKFADKHVPGSPFTVKVTGEGRMKESITRRRQAPSIATIGSTCDLNLKIPGNWFQMVSAQERLTRTFTRSSHTYTRTERTEISKTRGGETKREVRVEESTQVGGDPFPAVFGDFLGRERLGSFGSITRQQEGEASSQDMTAQVTSPSGKVEAAEIVEGEDSAYSVRFVPQEMGPHTVAVKYRGQHVPGSPFQFTVGPLGEGGAHKVRAGGTGLERGVAGVPAEFSIWTREAGAGGLSIAVEGPSKAEIAFEDRKDGSCGVSYVVQEPGDYEVSIKFNDEHIPDSPFVVPVASLSDDARRLTVTSLQETGLKVNQPASFAVQLNGARGVIDARVHTPSGAVEECYVSELDSDKHTIRFIPHENGVHSIDVKFNGAHIPGSPFKIRVGEQSQAGDPGLVSAYGPGLEGGTTGVSSEFIVNTLNAGSGALSVTIDGPSKVQLDCRECPEGHVVTYTPMAPGNYLIAIKYGGPQHIVGSPFKAKVTGPRLSGGHSLHETSTVLVETVTKSSSSRGSSYSSIPKFSSDASKVVTRGPGLSQAFVGQKNSFTVDCSKAGTNMMMVGVHGPKTPCEEVYVKHMGNRVYNVTYTVKEKGDYILIVKWGDESVPGSPFKVKVP | soluble |
| GLNHMTARYLREEHHMFRAAFRKFLEKEAYPHYNDWEKRGIIPRSFWAKMGENGFLCPWVDEKYGGLNADFAYSVVINEELEKVGSSLVGIGLHNDIVTPYIASYGTEEQKQKWLPKCVTGELITAIAMTEPGAGSDLANISTTAVKDGDYYIVNGQKTFITNGIHADLIVVACKTDPQAKPPHRGISLLVVERDTPGFTRGRKLEKVGLHAQDTAELFFQDAKVPAYNLLGEEGKGFYYLMEKLQQERLVVAIAAQTAAEVMFSLTKQYVKQRTAFGKRVSEFQTVQFRLAEMATEIALGRTFVDRVIEEHMAGKQIVTEVSMAKWWITEMAKRVAAEAMQLHGGYGYMEEYEIARRYRDIPVSAIYAGTNEMMKTIIARQLDL | soluble |
| GLQTYEYGLKPQDGFEVITHFEFTSQHLDILNRLFTPLIGVESIGLYHFMSQFIDESQQLGLTHYIFMNELKINLLDFREQMDNLEAIGLIKTFVRHEEKYSHFVYELIQPPTAYQFFNDPMLSVFLFSEVDKKRYQALKSYFEKDEKDLSKYQQTTRKFTEVFNVPKKVNVSDQINLKQIKHYDGIDLSNETFDFEMLRQMLNHHFISNEIIDKEAKNLIIQLATLYGITEDGMKNVILSSITSAQQLSFEEMRKKARTYYLIEHDNQLPKLEHQTNKINDEKKDRQAEDTTNDWLQLLDETSPIDMLASWSDSEPTQSQKSMIEELINREKMNFGVINILLQFVMLKEDMKLPKSYIFEIASNWKKIGISNAKQAYEYALQVNQPKNYETHSNDKRQNNRGRQNQFLSKEKTPKWLQNRDDQEENKEINDDTLEEDRQAFLEKLNQKWKEEDN | not soluble |
| GLTYDLNGNISTYRNEILELPETVAANGKFGGNGVKSVVGHTYGAQVGYIADGIFKSQDEVDNHATQEGAAVGRIRYRDIDHNGVIDERDQNWIYDPTPSFSYGLNIYLEYKNFDLTMFWQGVQGVDIISDVKKKSDFWSASNVGFLNKGTRLLNAWSPTNPNSDIPALTRSDTNNEQRVSTYFVENGSFLKLRNIQLGYTVPAVISKKMRMDRLRFYCSAQNLLTIKSKNFTGEDPENPNFSYPIPVNITFGLNIGF | not soluble |
| GMAGKVEARKAALREKLIDLAEAQIEAEGLASLRARELARQADCAVGAIYTHFQDLNALTLEVNGRTFARLGAAVGAVVADGQDDHPNERLIAMSHAYLAFAREHPKLWRALFDVEMRSDGPVPQWYGHAMAQLFSYITTPLAKIFPESDDAELDLMTRTLFSSVHGIVLLGLENRISGVPGEQLKTMIRLLLEQVGR | soluble |
| GMAHPPQIRIPATYLRGGTSKGVFFRLEDLPESCRVPGEARDRLFMRVIGSPDPYAAHIDGMGGATSSTSKCVILSKSSQPGHDVDYLYGQVSIDKPFVDWSGNCGNLSTGAGAFALHAGLVDPARIPEDGICEVRIWQANIGKTIIAHVPVSGGQVQETGDFELDGVTFPAAEIVLEFLDPSDDGEDGGAIFPTGNLVDDLEVPGVGTFKATMINAGIPTVFVNAEEIGYRGTELREEINGDPQQLARFERIRVAGALRMGLIKTPEEAATRQHTPKIAFVAPPRDYRTASGKLVAAGDIDLLVRALSMGKLHHAMMGTAAVAIGTAAAIPGTLVNLAAGGGERSAVRFGHPSGTLRVGAEASQANGEWTVTKAIMSRSARILMEGWVRVPGDAF | soluble |
| GMARKRLIIEMGMGIDQHGQEPTIAASRAVRNAIAHNALPGVWEVAGLSHPNEMIIEVQVAVPYPEQVREEEVLAVLPFGRKTLTVESGGMIVQGRAIPELNDKNDEMLIAIAAVTVLIENE | soluble |
| GMASEFDLIQRYFRRAHPSAVLGVGDDAALIQPSPGMELAVSADMLVANTHFYPNIDPWLIGWKSLAVNISDMAAMGAQPRWATLTIALPEADEDWISKFAAGFFACAAQFDIALIGGDTTRGPLTISVQIMGETPPGASLLRSTARADDDIWVSGPLGDAALALAAIQGRYPLSDTELAACGKALHQPQPRVVLGQALRGLAHSALDISDGLLADLGHILEHSQVGAEVWLKAIPKSEVVSAHSQEVAIQKMILSGGDDYELCFTASTQHRQQIADIGRQLSLDMAVIGRITDTQQLVIHGLDDAPLTLKEHGFDHFA | soluble |
| GMCINRQILNAVTASNRKKNTPLNTYVSFDEPVNPEDDSQVKLVDVLKSDKEQNPERLFIDQENAESLEDKLYSVLSGFEKNVLELYMSGKDYIAIAQTLDKPPKSIDNAIQRIRNKVDKITNL | not soluble |
| GMDDETLRLQFGHLIRILPTLLEFEKKGYEPSLAEIVKASGVSEKTFFMGLKDRLIRAGLVKEETLSYRVKTLKLTEKGRRLAECLEKCRDVLGS | soluble |
| GMDISGRDVETRLTLAREFMSGVDELPTVPDIVLRIAGKLNDPDVAIDEVADLLLQDQVLTARVVHLANSPLYSAARPISSIRDAVIYLGLDLLREAIFTCAIVDLFKTGKGPLNRSTLWAHSLGVARIAKLIAERTGFLNPVNVYVAGLLHDVGEVFINFFRGKEFSQVVTLVDEEKITFGQAEERLFGTSHCEVGFALAKRWSLNEFICDTILYHHDIEAVPYKQAAIVAMVAFADEYCTLRRLGFEGHKPVDSVRTLLENHPSWGVIRRSLGGSDFDEKLIVAELDSSIVEIRAAVDELFLL | soluble |

— the DeepSol protein solubility set
